Substrate in the series: NC(=O)CC[C@H](NC(=O)[C@@H](N)CCC(N)=O)C(=O)O
In words: Spectrophotometric QC activity assay (glutamate dehydrogenase coupled), human QC expressed in E. coli. It is filed as biochemical. To be noted: other: substrate of human QC expressed in Escherichia coli cell, mean ± SD (n = 2), 50 mM Tris-HCl, pH 8.0. As to the method:
For the spectrophotometric method, the 500 μl assay solutions consisted of 15 units glutamate dehydrogenase, 12 mM α-ketoglutarate, 0.6 mM NADH (a reduced form of NAD (nicotinamide adenine dinucleotide)) and varying concentrations of synthetic substrate in 50 mM Tris-HCl, pH 8.0. Reactions were started by the addition of QC (0.04 to 2.5 μg), and the activity was monitored by recording the decrease of NADH absorbance at 340 nm.
The Km and kcat values determined for the recombinant protein of the invention were very similar to the human QC expressed in Drosophila S2 cells, as evident in Table 1.

Usually Km stands for the concentration of substrate that gives half-maximal velocity. What is called kcat is the number of substrate molecules converted per active site and unit of time at saturation. As a reminder, the kcat/Km is the turnover number divided by the Michaelis constant.

B1: recombinant human QC (Homo sapiens) (protein)
chain: ASAWPEEKNYHQPAILNSSALRQIAEGTSISEMWQNDLQPLLIERYPGSPGSYAARQHIMQRIQRLQADWVLEIDTFLSQTPYGYRSFSNIISTLNPTAKRHLVLACHYDSKYFSHWNNRVFVGATDSAVPCAMMLELARALDKKLLSLKTVSDSKPDLSLQLIFFDGEEAFLHWSPQDSLYGSRHLAAKMASTPHPPGARGTSQLHGMDLLVLLDLIGAPNPTFPNFFPNSARWFERLQAIEHELHELGLLKDHSLEGRYFQNYSYGGVIQDDHIPFLRRGVPVLHLIPSPFPEVWHTMDDNEENLDESTIDNLNKILQVFVLEYLHL
notes: corresponding to the coding region of human QC (Ala33-Leu361) was re-amplified and inserted into a pET-43.1a expression vector; Nus fusion (pET-43.1a construct) or thioredoxin fusion (pET-32a construct) (N, cleaved yes); (His)6 (pET-43.1a construct: N- and C-terminal sites; pET-32a construct: 5'-end, upstream of the Factor Xa site); made in house; host or cells: E. coli BL21 (DE3)
As for B1, the Km stood at 600 ± 100 µM, the kcat amounted to 8.6 ± 0.5 s⁻¹ and the kcat/Km was found to be 13700 ± 500 M⁻¹ s⁻¹.

The values above are taken from patent US7846719B2, “Express system of soluble glutaminyl cyclase” (Academia Sinica, priority 2006, dated 2010).
